Assay [1] addresses Fluorescein-SpPBP2x1-29 (S. pneumoniae R6). Nature of the assay: fluorescence polarisation.
For assay [2], the target named is TAMRA-SpPBP2a23-45 Arg31Lys (S. pneumoniae R6). Put plainly: fluorescence polarisation.
In assay [3] the target is TAMRA-SpPBP2a23-45 Arg31LysArg33Lys (S. pneumoniae R6). Nature of the assay: fluorescence polarisation.
Assay [4] has as its target TAMRA-SpPBP2a23-45 Arg33Ala (S. pneumoniae R6). Nature of the assay: fluorescence polarisation.
The target in assay [5] is TAMRA-SpPBP2a23-45 Arg33Lys (S. pneumoniae R6). Put plainly: fluorescence polarisation.
Assay [6] has as its target TAMRA-SpPBP2a23-45 Arg36Ala (S. pneumoniae R6). Nature of the assay: fluorescence polarisation.
Assay [7] has as its target TAMRA-SpPBP2a23-45 Ser32Ala (S. pneumoniae R6). Nature of the assay: fluorescence polarisation.
Assay [8] deals with TAMRA-SpPBP2a23-45 wildtype (S. pneumoniae R6). Put plainly: fluorescence polarisation.
Assay [9] has as its target Fluorescein-LmPBPA11-20 Arg12Ala (L. monocytogenes EGD-e). Nature of the assay: fluorescence polarisation.
Assay [10] deals with Fluorescein-LmPBPA11-20 Arg8Ala (L. monocytogenes EGD-e). Put plainly: fluorescence polarisation.
The target of assay [11] is Fluorescein-LmPBPA11-20 Arg8AlaSer16Arg (L. monocytogenes EGD-e). Put plainly: fluorescence polarisation.
In assay [12] the target is Fluorescein-LmPBPA11-20 wildtype (L. monocytogenes EGD-e). Put plainly: fluorescence polarisation.
The target in another assay is T1, BsGpsB (Bacillus subtilis, UniProt P0CI74).
T1 construct: new FP data concerning full length BsGpsB have now been added to; made in house; host or cells: E. coli BL21(DE3)
T1 sequence (P0CI74 whole entry): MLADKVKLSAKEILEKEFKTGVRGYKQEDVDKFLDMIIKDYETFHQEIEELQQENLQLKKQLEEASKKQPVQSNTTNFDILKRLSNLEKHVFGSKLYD
Nature of the assay: BACTH interaction with BsGpsB. It counts as cell-based. The settings on record: E. coli BTH101, nutrient agar, 30 °C.

The target of assay [13] is T2, BsGpsB1-68 Tyr25Phe (B. subtilis, UniProt P0CI74 1-68, Tyr25Phe).
T2 construct: GpsB, Bacillus subtilis, residues 1-68 (N-terminal domain); also called BsGpsB1-68 Y25F; source: E. coli BL21(DE3), purified (Ni-NTA, thrombin removal of the His6-tag, SEC); not shown: His6, N-terminal, cleaved
T2 sequence (looked up): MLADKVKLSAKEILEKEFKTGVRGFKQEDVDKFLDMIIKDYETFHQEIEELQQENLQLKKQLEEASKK
Nature of the assay: fluorescence polarisation. The settings on record: both partners purified.

Assay [14] deals with T3, BsGpsB1-68 Asp31Ala (B. subtilis, UniProt P0CI74 1-68, Asp31Ala).
T3 construct: GpsB, Bacillus subtilis, residues 1-68 (N-terminal domain); also called BsGpsB1-68 D31A; source: E. coli BL21(DE3), purified (Ni-NTA, thrombin removal of the His6-tag, SEC); not shown: His6, N-terminal, cleaved
T3 sequence (looked up): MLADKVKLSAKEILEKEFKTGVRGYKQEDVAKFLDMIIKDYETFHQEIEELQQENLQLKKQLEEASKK
Put plainly: fluorescence polarisation. The settings on record: both partners purified.

Assay [15] addresses T2, BsGpsB1-68 Tyr25Phe. Put plainly: fluorescence polarisation; GpsB protein titrated into TAMRA- or fluorescein-labelled peptide; 10 mM Tris.HCl pH 8.0, 250 mM NaCl, 0.1% reduced Triton X-100; all data fitted to a 1:1 interaction model, Kd ± standard error. The settings on record: both partners purified.
The target of assay [16] is T3, BsGpsB1-68 Asp31Ala. Described as above. The settings on record: both partners purified.
The target in assay [17] is LmPBPA1_(1-20)^Arg12Ala (L. monocytogenes EGD-e). Put plainly: fluorescence polarisation.
For assay [18], the target named is LmPBPA1_(1-20)^Arg8Ala (L. monocytogenes EGD-e). Put plainly: fluorescence polarisation.
The target in assay [19] is LmPBPA1_(1-20)^Arg8Ala,Ser16Arg (L. monocytogenes EGD-e). Nature of the assay: fluorescence polarisation.
Assay [20] deals with LmPBPA1_(1-20)^Tyr11Ala (L. monocytogenes EGD-e). Nature of the assay: fluorescence polarisation.
Assay [21] deals with Q10P-mutated LmPBPA1 peptide (taken as LmPBPA1_(1-20)^Gln10Pro) (L. monocytogenes EGD-e). Nature of the assay: fluorescence polarisation.
Assay [22] has as its target T4, BsYpbE_(1-21), fluorescein-labelled (B. subtilis, UniProt P50731 1-21, fluorescein (position not given)).
T4 construct: also called 21-residue fragment of the cytoplasmic domain of BsYpbE; source: synthetic peptide
T4 peptide: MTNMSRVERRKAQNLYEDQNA
Nature of the assay: fluorescence polarisation. The settings on record: both partners purified.

Assay [23] addresses T5, BsPBP1_(1-32), TAMRA-labelled at position 16 (B. subtilis, UniProt P39793 1-32, Ser16Cys, TAMRA (maleimide) at position 16).
T5 construct: PBP1, Bacillus subtilis, residues 1-32; also called BsPBPA1_(1-32); BsPBP1A_(1-32); source: E. coli, His-tagged MBP fusion purified (Ni-NTA), labelled, TEV-cleaved, ultrafiltration
T5 peptide (looked up): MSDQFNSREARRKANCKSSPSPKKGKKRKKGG
Nature of the assay: fluorescence polarisation; GpsB protein titrated into fluorescently labelled peptide; 10 mM Tris.HCl pH 8.0, 250 mM NaCl, 0.1% reduced Triton X-100; fit to a 1:1 interaction model. The settings on record: both partners purified.

Assay [24] addresses T6, BsYrrS_(1-18), fluorescein-labelled (B. subtilis, UniProt O32031 1-18, also: fluorescein label, position not given here).
T6 construct: YrrS, Bacillus subtilis, residues 1-18; also called entire cytoplasmic mini-domain of BsYrrS
T6 peptide (looked up): MSNNQSRYENRDKRRKAN
Described as above. The settings on record: both partners purified.

Another assay has as its target T7, SpGpsB_(1-63) (S. pneumoniae R6, UniProt Q8DR57 1-63).
T7 construct: GpsB, Streptococcus pneumoniae R6, residues 1-63 (stop codon in place of Pro64); also called N-terminal domain of SpGpsB; wildtype SpGpsB_(1-63); source: E. coli, purified (Ni-NTA, thrombin, ammonium sulphate precipitation, gel filtration)
T7 sequence (looked up): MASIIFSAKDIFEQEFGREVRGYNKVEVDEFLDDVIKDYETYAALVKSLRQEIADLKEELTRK
Put plainly: fluorescence polarisation. The settings on record: both partners purified.

Non-standard residues stand in square brackets, D forms with d. No end group written: not given here. fluorescein = fluorescein fluorescent label on the N-terminus; C(fluorescein) = cysteine carrying a fluorescein label; Nle = CCCC[C@H](N)C(=O)O

SpGpsB1-63 (domain or fragment): the dissociation constant Kd in assay [1] was 370 µM; in [2] it was 150 µM; in assay [3] it was more than 2 mM; in [4] it was 530 µM; in [5] it was 360 µM; in [6] it was 270 µM. The Kd in assay [7] turned out to be 210 µM.

In assay [8], “SpGpsB1-63 Asp33Ala (domain or fragment)” gave a Kd of more than 3 mM.

As for “BsGpsB1-68 Lys32Glu (from UniProt P0CI74 1-68) (domain or fragment)”, the Kd in [9] is 800 µM; in [10], more than 3 mM; in [11], more than 2 mM; in assay [12], 190 µM.

B1: BsYpbE: B. subtilis YpbE, LysM-domain membrane protein (protein, UniProt P50731 1-240, looked up)
Uncharacterized protein YpbE: MTNMSRVERRKAQNLYEDQNAALADDYVDDGESLPTRQSVKNQREQKKKQGKTKTPLFTVLAVIFVFVPVIVLVTLFYLKSHPDNHDDYEDVFIDSSQSKYEVVPKSEDKNDTADTKETALQKESKKEPEDSKPKEQTAADKKQTAVAEKEDSPNKEEATAAAASSSQSTVQQQEQPAEPVQNVPNRVVKHTVQKKETLYRISMKYYKSRTGEEKIRAYNHLNGNDVYTGQVLDIPLMDE
For B1, in the assay with BsGpsB, the “BACTH interaction with BsGpsB” value is “detected”.

B2: BsYrrS: B. subtilis YrrS (protein, UniProt O32031 1-233, looked up)
Uncharacterized membrane …: MSNNQSRYENRDKRRKANLVLNILIAIVSILIVVVAANLFINSPSSKDVSKDSETAQKQESPASGKTEKKSDEDIKDSKKDTSDSEKDSEKSSDSDSKKDDSSSKKDDSDSDSSSDSAGDGLKDAKVTEGGSSSDVEKTYENPDWKAVGTEQTGEHAATYDSSSQDWAEMLKAISYATGVSTDNMTVLWLGNNGSPQDAKGKILDKATGNKYQVTITWVDEKGWKPTKVEKLK
Consider B2, for which the “BACTH interaction with BsGpsB” value with BsGpsB is reported as “detected”.

On to fluorescein-[Nle]TN[Nle]SRVERRKAQNLYEDQNA [Fluoroescein-BsYpbE1-21], for which the Kd in the assay with BsGpsB1-68 Tyr25Phe [13] and in the assay with BsGpsB1-68 Asp31Ala [14] was more than 500 µM each time.

For the molecule MSNNQSRYENRDKRRKAN-{C(fluorescein)} [Fluoroescein-BsYrrS1-18], the Kd with BsGpsB1-68 Tyr25Phe [15] and with BsGpsB1-68 Asp31Ala [16] was more than 3 mM each time.

B3: BsGpsB_(1-68)^Lys32Glu (domain or fragment)
chain: MLADKVKLSAKEILEKEFKTGVRGYKQEDVDEFLDMIIKDYETFHQEIEELQQENLQLKKQLEEASKK
Take B3: the fold reduction in affinity against wild type in assay [17] was 4 fold; in assay [18], more than 15 fold; in [20], 2 fold; in assay [21] it was more than 7 fold. Further, the fold weaker affinity than wild type in assay [19] is more than 10 fold.

B4: BsGpsB_(1-68)^Asp31Ala (domain or fragment, B. subtilis, UniProt P0CI74 1-68, looked up)
chain: MLADKVKLSAKEILEKEFKTGVRGYKQEDVAKFLDMIIKDYETFHQEIEELQQENLQLKKQLEEASKK
notes: GpsB, Bacillus subtilis, residues 1-68; also called BsGpsB^Asp31Ala; source: E. coli, purified (Ni-NTA, thrombin, size exclusion)
B4: the “fold reduction in affinity against wild type” value in assay [22] is approximately 40 fold; in [23], more than 8 fold; in assay [24], 7 fold.

B5: BsGpsB_(1-68)^Tyr25Phe (domain or fragment, B. subtilis, UniProt P0CI74 1-68, looked up)
chain: MLADKVKLSAKEILEKEFKTGVRGFKQEDVDKFLDMIIKDYETFHQEIEELQQENLQLKKQLEEASKK
notes: GpsB, Bacillus subtilis, residues 1-68; the making of this mutant is not described in the methods; also called BsGpsB^Tyr25Phe; source: E. coli, purified (Ni-NTA, thrombin, size exclusion)
With B5, the figures for the “fold reduction in affinity against wild type” value in assay [22], in [23] and in assay [24] were approximately 40 fold, more than 8 fold and 7 fold, respectively.

B6: SpPBP2a_(23-45), TAMRA-labelled (peptide)
peptide: DSDSTILRRSRSDRKKLAQVCPI
modifications: also: TAMRA (maleimide) label, site not given here
notes: source: E. coli, His-tagged MBP fusion purified (Ni-NTA), labelled, TEV-cleaved, ultrafiltration
B6 showed a Kd in the assay with SpGpsB_(1-63) of 80 µM.

B7: SpPBP2x_(1-29), fluorescently labelled (peptide)
peptide: GSGMKWTKRVIRYATKNRKSPAENRRRVGKSLCS
modifications: also: TAMRA or fluorescein maleimide label, which one and site not given here
notes: as for B6
As to B7, in the assay with SpGpsB_(1-63), the binding result was “binds”.

The values above are taken from paper PMC6335420, “The cell cycle regulator GpsB functions as cytosolic adaptor for multiple cell wall enzymes” (Nature Communications, 2019).
